Measured values: patent publication US7838266B2, “Proaerolysin containing protease activation sequences and methods of use for treatment of prostate cancer” (University of Victoria Innovation and Development …, priority 2001, dated 2010)
No end group written: not given here.

Assays:
[1] = target: PSA (Homo sapiens, UniProt P07288); settings: cited from earlier work; for Kcat / Km: aminomethyl coumarin labeled peptides, 50 mM Tris, 0.1 M NaCl, pH 7.8
[2] = test system: mice; assay: In vivo toxicity after single intravenous injection
Protocol: To determine in vivo toxicity, proaerolysin variants were administered to mice intravenously.

[3] = test system: human LNCaP prostate cancer xenografts which produce PSA; assay: Intratumoral injection into PSA-producing LNCaP xenografts; format: in vivo; settings: nude mice
Protocol: The percent of tumor within sample was determined by calculating the ratio of viable tumor to total tumor area following image analysis of thin tumor sections.

[4] = test system: E14 mouse T-cell lymphoma cells (ATCC TIB-39); assay: In vitro toxicity, MTS/PMS cell viability assay; format: cell-based; settings: 4 hours at 37° C., 1×10^−13 M-1×10^−7M toxin, FIG. 3; read-out: LC50 (the source's name)
Protocol: To determine in vitro toxicity, a cell viability assay was performed as follows. E14 mouse T-cell lymphoma cells (ATCC TIB-39) were cultured at 10^+5 cells per well in MTS/PMS Cell Titer 96 (Promega). […] Cell viability was subsequently determined by reading the plate on a plate reader, as directed by the manufacturer of the MTS/PMS kit.

PSA, sequence (P07288 25-261): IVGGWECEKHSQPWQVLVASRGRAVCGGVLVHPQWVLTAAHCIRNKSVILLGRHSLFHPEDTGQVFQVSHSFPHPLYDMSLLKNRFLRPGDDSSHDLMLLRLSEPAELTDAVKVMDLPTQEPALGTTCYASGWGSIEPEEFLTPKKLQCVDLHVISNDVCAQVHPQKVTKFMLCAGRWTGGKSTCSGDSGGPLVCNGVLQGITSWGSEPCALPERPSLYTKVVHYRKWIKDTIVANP

Row | Substance | Kcat [1] | Km [1] | efficiency and specificity of hydrolysis by PSA [1] | lethality after dose of 1 μg ([2]; intravenous, 1 μg) | LD100 at 24 hours (dose that kills 100% of animals within 24 hours) ([2]; single IV injection, total dose) | antitumor effect against LNCaP xenografts [3] | CC50 [4]
1 | ATKSKQH (also: fluorescently labeled (aminomethyl coumarin); listed as Homo sapiens) [ATKSKQH (17), PSA substrate peptide] | 0.0091 s⁻¹ | 1310 µM | not efficient, but were specifically hydrolyzed by PSA |  |  |  | 
2 | EHSSKLQ (also: fluorescently labeled (aminomethyl coumarin); listed as Homo sapiens) [EHSSKLQ (20), PSA substrate peptide] | 0.012 s⁻¹ | 1160 µM |  |  |  |  | 
3 | HSSKLQ (listed as Homo Sapiens) [HSSKLQ (5), PSA substrate peptide] | 0.011 s⁻¹ | 470 µM |  |  |  |  | 
4 | KGISSQY (also: fluorescently labeled (aminomethyl coumarin); listed as Homo sapiens) [KGISSQY (15), PSA substrate peptide] | 0.043 s⁻¹ | 160 µM | efficiently but not specifically hydrolyzed by PSA |  |  |  | 
5 | KGLSSQC (also: fluorescently labeled (aminomethyl coumarin); listed as Homo sapiens) [KGLSSQC (18), PSA substrate peptide] | 0.0017 s⁻¹ | 300 µM |  |  |  |  | 
6 | LGGSSQL (also: fluorescently labeled (aminomethyl coumarin); listed as Homo sapiens) [LGGSSQL (19), PSA substrate peptide] | 0.0037 s⁻¹ | 900 µM | not efficient, but were specifically hydrolyzed by PSA |  |  |  | 
7 | SKLQ (also: fluorescently labeled (aminomethyl coumarin); listed as Homo sapiens) [SKLQ (21), PSA substrate peptide] | 0.020 s⁻¹ | 813 µM |  |  |  |  | 
8 | SRKSQQY (also: fluorescently labeled (aminomethyl coumarin); listed as Homo sapiens) [SRKSQQY (16), PSA substrate peptide] | 0.023 s⁻¹ | 90 µM | efficiently but not specifically hydrolyzed by PSA |  |  |  | 
9 | Wild-type proaerolysin |  |  |  | caused death within one hour | 0.1 µg | minimal effect | 0.15 nM
